According to article PMC11289878:

Biological target: B-isoform of human insulin receptor (hIR-B) (human) (UniProt P06213)
Chain of UniProt P06213 (P06213 28-1382): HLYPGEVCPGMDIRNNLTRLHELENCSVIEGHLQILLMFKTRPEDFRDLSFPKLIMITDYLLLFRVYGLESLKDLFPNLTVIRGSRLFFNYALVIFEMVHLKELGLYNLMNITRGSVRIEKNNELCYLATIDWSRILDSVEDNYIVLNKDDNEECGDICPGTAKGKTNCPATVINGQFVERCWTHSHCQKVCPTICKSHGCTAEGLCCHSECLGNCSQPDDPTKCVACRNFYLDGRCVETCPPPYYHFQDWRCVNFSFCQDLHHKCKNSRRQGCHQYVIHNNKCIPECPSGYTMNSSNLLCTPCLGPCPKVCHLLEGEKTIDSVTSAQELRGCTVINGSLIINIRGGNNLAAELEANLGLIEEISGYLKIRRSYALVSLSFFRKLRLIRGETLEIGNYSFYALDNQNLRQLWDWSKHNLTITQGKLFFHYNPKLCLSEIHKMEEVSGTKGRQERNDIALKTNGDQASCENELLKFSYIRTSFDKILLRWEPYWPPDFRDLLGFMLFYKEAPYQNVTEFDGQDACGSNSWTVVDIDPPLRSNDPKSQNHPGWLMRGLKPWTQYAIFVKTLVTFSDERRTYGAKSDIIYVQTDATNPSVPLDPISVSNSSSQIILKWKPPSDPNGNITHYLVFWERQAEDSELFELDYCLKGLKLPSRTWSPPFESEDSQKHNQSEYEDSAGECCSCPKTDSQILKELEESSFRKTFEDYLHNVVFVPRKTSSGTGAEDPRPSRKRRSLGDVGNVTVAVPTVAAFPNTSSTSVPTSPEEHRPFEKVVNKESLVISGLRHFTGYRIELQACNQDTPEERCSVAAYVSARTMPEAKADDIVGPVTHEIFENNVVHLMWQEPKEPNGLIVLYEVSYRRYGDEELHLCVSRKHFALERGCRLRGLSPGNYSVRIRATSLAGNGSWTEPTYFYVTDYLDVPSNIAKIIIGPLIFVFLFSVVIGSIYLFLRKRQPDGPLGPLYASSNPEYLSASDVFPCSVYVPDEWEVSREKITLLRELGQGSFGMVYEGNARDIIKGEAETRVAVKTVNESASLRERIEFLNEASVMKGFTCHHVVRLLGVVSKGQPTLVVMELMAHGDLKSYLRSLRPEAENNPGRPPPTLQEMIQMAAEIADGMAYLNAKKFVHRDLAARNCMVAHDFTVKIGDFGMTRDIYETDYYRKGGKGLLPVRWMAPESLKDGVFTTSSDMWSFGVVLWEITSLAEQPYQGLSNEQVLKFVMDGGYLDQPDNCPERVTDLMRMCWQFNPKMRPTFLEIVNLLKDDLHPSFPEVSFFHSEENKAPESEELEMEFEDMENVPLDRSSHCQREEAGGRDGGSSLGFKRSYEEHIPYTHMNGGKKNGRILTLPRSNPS

## LY3209590 (Fc fusion)
  EC50 (nM) of insulin receptor Y1158 phosphorylation, HEK293 cells overexpressing hIR-B, 0% HSA: 50 nM
  EC50 (nM) of insulin receptor Y1158 phosphorylation, HEK293 cells overexpressing hIR-B, 1% HSA: 83 nM
  Rel. potency (%) to human insulin standard in the same assay, insulin receptor Y1158 phosphorylation, 0% HSA: 1.4%
  Rel. potency (%) to human insulin standard in the same assay, insulin receptor Y1158 phosphorylation, 1% HSA: 1.5%
